{"source": "patent US20180312587A1", "about": "(ADURO BIOTECH HOLDINGS EUROPE B V, published 2018)", "binders": {"B1": {"name": "KWAR23 (antibody, V domains shown)", "VH": "EVQLQQSGAELVKPGASVKLSCTASGFNIKDYYIHWVQQRTEQGLEWIGRIDPEDGETKYAPKFQDKATITADTSSNTAYLHLSSLTSEDTAVYYCARWGAYWGQGTLVTVSS", "VL": "QIVLTQSPAIMSASPGEKVTLTCSASSSVSSSYLYWYQQKPGSSPKLWIYSTSNLASGVPARFSGSGSGTSYSLTISSMEAEDAASYFCHQWSSYPRTFGAGTKLELK"}, "B2": {"name": "hSIRPα.40A (antibody, mouse IgG1, kappa, V domains shown)", "VH": "EVQFQQSGTVLARPGTSVKMSCKASGSTFTSYWMHWVKQGPGQGLQWIGAIYPVNNDTTYNQKFKGKAELTVVTSTSTAYMEVSSLTNEDSAVYYCTRSFYYSLDAAWFVYWGQGTLVTVSA", "VL": "DIQMTQSPSSLSASLGERVSLTCRASQDIGSRLNWLQQEPDGTIKRLIYATSSLDSGVPKRFSGSRSGSDYSLTISGLESEDFVDYYCLQYASSPFTFGGGTKLEINR", "notes": "mouse antibody, full chains without signal peptide; also called mouse hSIRPα.40A"}, "B3": {"name": "hSIRPα.50A (antibody, V domains shown)", "VH": "QVQLQQSGPELVKPGASVRISCKASGFTFTNYYIHWVKQRPGQGLEWIGWIYPGNVNTKYNEKFKAKATLTADKSSTTAYMQLSSLASEDSAVYFCARPTIIATDFDVWGAGTTVTVSS", "VL": "DIVMTQSHKFMSTSVGDRVNITCKASQGVGTAVGWYQQKPGQSPRLLIYWASTRHTGVPDRFTGSGSGTDFSLAISNVQSEDLADYFCQQYSTYPFTFGGGTNLEIK", "notes": "light chain constant domain not tied; also called mouse hSIRPα.50A; hSIRPα.50A.mIgG1"}}, "key": {"human SIRPβ1 [1]": {"target": "T1, human SIRPβ1 (human, UniProt O00241 30-398)", "T1 construct": "also called hSIRPβ1", "T1 sequence (O00241 30-398 limits assumed)": "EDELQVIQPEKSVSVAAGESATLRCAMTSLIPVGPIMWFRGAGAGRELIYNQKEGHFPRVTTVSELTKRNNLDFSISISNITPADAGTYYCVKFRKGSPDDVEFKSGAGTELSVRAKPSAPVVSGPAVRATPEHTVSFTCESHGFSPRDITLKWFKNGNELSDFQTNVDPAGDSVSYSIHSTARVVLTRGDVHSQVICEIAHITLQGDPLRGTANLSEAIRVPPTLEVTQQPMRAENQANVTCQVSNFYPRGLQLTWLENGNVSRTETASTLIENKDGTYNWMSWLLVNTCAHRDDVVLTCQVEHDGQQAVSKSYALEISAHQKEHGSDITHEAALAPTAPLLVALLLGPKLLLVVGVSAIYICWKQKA", "test": "CELISA, CHO-K1 transfectants; average of two experiments", "protocol": "The binding specificity of antibody hSIRPα.50A to hSIRPα was compared antibody KWAR23 (Canadian Patent 2939293 A1), in a CELISA format. CHO-K1 cells were transiently transfected with hSIRPαV1, hSIRPαV2, hSIRPβ1, and hSIRPγ (GenBank accession: NM_018556.3) (SEQ ID NO: 39) cDNAs. Subsequently, hSIRPα binding was assessed by CELISA using CHO-K1.hSIRPαV1, CHO-K1.hSIRPαV2, CHO-K1.hSIRPβ1, and CHO-K1.hSIRPγ cells. Detection of bound antibody was performed with goat-anti-mouse IgG-HRP (Southern Biotech) for mouse antibodies including hSIRPα.50A and control antibodies or, alternatively, with goat-anti-human IgG-HRP conjugate (Jackson Immuno Research) for the KWAR23 antibody. KWAR23 (SEQ ID NO: 130; SEQ ID NO: 131) was expressed as a chimeric human IgG4 kappa antibody in CHO cells. As shown in FIG. 2 and the following Table 9, KWAR23 antibody cross-reacts with all members of the SIRP receptor family tested: it binds to hSIRPαV1, hSIRPαV2, hSIRPβ1, and hSIRPγ."}, "human SIRPβ1 [2]": {"target": "T1, human SIRPβ1", "test": "CELISA, CHO-K1 transfectants", "protocol": "(§1) The specificity of monoclonal anti-hSIRPα antibodies (e.g., including the hSIRPα antibodies known in the art, KWAR23 ([…]. Patent CA2939293 A1), 18D5 (Patent WO2017/178653 A2), and various commercially available hSIRPα antibodies) for binding to hSIRPαV1, hSIRPαV1(P74A), and hSIRPβ1 was evaluated by CELISA. Reactivity was confirmed using CHO-K1 cells (ATCC CCL-61) expressing a cDNA encoding the full length open reading frame of hSIRPαV1, hSIRPαV1(P74A), and hSIRPβ1 subcloned into the pCI-neo vector (Promega, Madison, Wis.). CHO-K1.hSIRPαV1, CHO-K1.hSIRPαV1(P74A), and CHO-K1.hSIRPβ1 cells were seeded in culture medium (DMEM-F12 (Gibco) supplemented with 5% New Born Calf Serum (BioWest) and Pen/Strep (Gibco)) in 96-well flat-bottom tissue culture plates and incubated at 37° C., 5% CO₂ and 95% humidity for 24 hours. Subsequently, culture medium was removed and cells were incubated for 1 hour at 37° C., 5% CO₂ and 95% humidity with purified hSIRPα antibodies (used at 10 μg/ml and dilutions thereof). Next, cells were washed with PBS-T and incubated for 1 hour at 37° C., 5% CO₂ and 95% humidity with either goat-anti-mouse IgG-HRP (Southern Biotech), goat-anti-human IgG-HRP (Jackson Immuno Research), or goat-anti-rabbit IgG-HRP (Southern Biotech). Subsequently, cells were washed three times with PBS-T and immunoreactivity against hSIRPαV1, hSIRPαV1(P74A), and hSIRPβ1 was visualized with TMB Stabilized Chromogen (Invitrogen). Reactions were stopped with 0.5 M H₂SO₄ and absorbances were read at 450 and 610 nm."}, "hSIRPαV1(P74A)": {"target": "T2, hSIRPαV1(P74A) (human, UniProt P78324 31-504)", "T2 construct": "also called P74A variant of hSIRPαV1", "T2 sequence (P78324 31-504 P74A limits assumed)": "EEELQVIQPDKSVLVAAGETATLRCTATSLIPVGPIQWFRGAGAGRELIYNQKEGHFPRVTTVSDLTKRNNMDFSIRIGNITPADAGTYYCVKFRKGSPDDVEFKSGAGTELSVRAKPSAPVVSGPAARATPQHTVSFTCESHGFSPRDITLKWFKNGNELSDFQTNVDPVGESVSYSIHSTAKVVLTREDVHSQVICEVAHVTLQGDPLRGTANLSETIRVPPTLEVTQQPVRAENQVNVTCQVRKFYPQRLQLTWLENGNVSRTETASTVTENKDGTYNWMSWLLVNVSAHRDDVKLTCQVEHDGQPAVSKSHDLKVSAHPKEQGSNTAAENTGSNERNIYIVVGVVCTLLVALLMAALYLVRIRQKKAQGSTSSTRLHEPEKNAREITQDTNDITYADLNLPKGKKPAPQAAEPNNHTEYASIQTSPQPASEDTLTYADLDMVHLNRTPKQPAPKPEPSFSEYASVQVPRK", "test": "CELISA, CHO-K1 transfectants", "protocol": "as §1"}, "human SIRPα variant 1": {"target": "T3, human SIRPα variant 1 (human, UniProt P78324 31-504)", "T3 construct": "full length ORF on transfected CHO-K1 or HEK293 cells; entry includes the signal peptide; also called hSIRPαV1; SIRPαV1", "test": "flow cytometry, blockade of DyLight488-hCD47/Fc binding to U-937 cells", "protocol": "hCD47 blockade was assessed by flow cytometry for the full panel of humanized hSIRPα.40A antibodies. To this end, the U-937 (ATCC CRL-1593.2) monocyte cell line was used as the source of hSIRPα in the assay. U-937 cells were seeded in 96-well round bottomed tissue culture plates and incubated for 45 minutes with FcR Blocking Reagent (Miltenyi Biotec) and the parental or humanized hSIRPα.40A antibody variants (20 μg/mL and dilutions thereof) in PBS/1% BSA at 4° C. […] After this labeling procedure, cells were washed two times, resuspended in PBS/1% BSA containing 0.1 μg/mL DAPI (BioLegend), and analysed by flow cytometry on the FACSVerse (BD Biosciences). Data were processed and analysed with FlowJo V10 software (FlowJo, LLC) and plotted using GraphPad Prism 6 (GraphPad Software, Inc.).\nAs depicted in FIG. 18 and the following Table 21, binding of recombinant hCD47 fused to an Fc domain of human IgG1 was monitored in the presence of increasing amounts of the humanized hSIRPα.40A antibody variants. Humanized hSIRPα.40A blocked the hSIRPα/hCD47 interaction, using the flow cytometry-based method described above. […] IC50 values represent the concentration at which half of the inhibition is observed."}, "[3]": {"target": "T4, hSIRPα expressed on primary human cells (human, UniProt P78324 31-504)", "T4 construct": "whole, on cells; also called hSIRPα on primary human CD14+ monocytes; on primary human granulocytes", "T4 sequence (P78324 31-504)": "as the sequence (P78324 31-504 P74A limits assumed) above, with A44P counted along it", "test": "flow cytometry, blockade of DyLight488-hCD47/Fc binding to CD14+ enriched monocytes, donor 2", "protocol": "To assess the blocking ability of hSIRPα.50A, CD14+ enriched monocytes cells were seeded in 96-well round bottomed tissue culture plates and incubated for 45 minutes with FcR Blocking Reagent (Miltenyi Biotec) and hSIRPα.50A antibody (200 μg/mL and dilutions thereof) in PBS/1% BSA at 4° C. […] After this labeling procedure, cells were washed two times, resuspended in PBS/1% BSA containing 0.1 μg/mL DAPI (BioLegend), and analysed by flow cytometry on the FACSVerse (BD Biosciences). Data were processed and analysed with FlowJo V10 software (FlowJo, LLC). […] IC50 values represent the concentration at which half of the inhibition is observed."}}}
{"binder": "B1", "values": [{"measurement": "EC50", "setting": "human SIRPβ1 [1]", "value": 0.161, "unit": "nM"}, {"measurement": "EC50", "setting": "human SIRPβ1 [2]", "value": 0.065, "unit": "nM"}, {"measurement": "EC50", "setting": "hSIRPαV1(P74A)", "value": 0.077, "unit": "nM"}]}
{"binder": "B2", "values": [{"measurement": "IC50", "setting": "human SIRPα variant 1", "value": 1.12, "unit": "nM"}]}
{"binder": "B3", "values": [{"measurement": "IC50", "setting": "[3]", "value": 1.03, "unit": "nM"}]}
